Results on 28 sequences are retold here after the supplement of paper PMC10724198.

± gives the standard deviation of the averaged measurements.

This data set has as its system Saccharomyces cerevisiae. Description: protein stability index of tFT-peptide fusion (C-terminal peptide) (PSI (0-1 scale)); higher = more stable (slower turnover). The settings on record: temperature: 30 C. As to the method: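 MPS profiling in S. cerevisiae of the yeast C-terminome library: the last 12 aa of each annotated ORF are fused to the C-terminus of a sfGFP-mCherry timer, after a GGGS linker. Cells are FACS-sorted into 8 mCherry/sfGFP bins and deep-sequenced. PSI runs from 0 (unstable) to 1 (stable); wild type and das1Δ backgrounds, two technical replicates each.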

The mark [1] stands for this setting: genetic background: das1 deletion.

For the sequence HEEVKHTADTVD [CDC37 C-terminal 12 aa], the protein stability index reads like this: under setting [1], 0.71118 ± 0.00024; (genetic background: wild type) 0.67 ± 0.018.

Turning to HEWKTSINAIST [SWT1 C-terminal 12 aa], the protein stability index was 0.6881 ± 0.0024 under setting [1] and 0.727 ± 0.079 (genetic background: wild type).

With HFKTLVEAFTRN [VPS52 C-terminal 12 aa], the protein stability index came to 0.709 ± 0.0082 under setting [1] and 0.714 ± 0.047 (genetic background: wild type).

HFQYKGKPSRRF [BUB1 C-terminal 12 aa] registered a protein stability index under setting [1] of 0.693 ± 0.012 and a protein stability index (genetic background: wild type) of 0.685 ± 0.035.

Take HISLKCIVYKEY [YER135C C-terminal 12 aa]: the protein stability index is, setting by setting: under setting [1], 0.638 ± 0.0081; (genetic background: wild type) 0.665 ± 0.016.

As to HKGAVCVALNDV [LST8 C-terminal 12 aa], the protein stability index reads like this: under setting [1], 0.6883 ± 0.0052; (genetic background: wild type) 0.696 ± 0.051.

For HKGNGTDKVFVF [AIM33 C-terminal 12 aa], the protein stability index was found to be 0.7139 ± 0.001 under setting [1] and 0.693 ± 0.017 (genetic background: wild type).

For HKNHSVPRLIQV [YCL068C C-terminal 12 aa], the protein stability index is, setting by setting: under setting [1], 0.6194 ± 0.0049; (genetic background: wild type) 0.654 ± 0.048.

For the sequence HKQCDSLLDRLK [PTA1 C-terminal 12 aa], the protein stability index runs as follows: under setting [1], 0.698 ± 0.024; (genetic background: wild type) 0.7053 ± 0.0067.

In the case of HLEKKEPKSRKK [YDL129W C-terminal 12 aa], the protein stability index runs as follows: under setting [1], 0.724 ± 0.013; (genetic background: wild type) 0.689 ± 0.03.

Consider HLTKLCIFPGLP [YLR282C C-terminal 12 aa], for which the protein stability index amounted to 0.68857 ± 5.1e-05 under setting [1] and 0.70209 ± 0.00069 (genetic background: wild type).

As for HLYDHILEKMVK [CNM67 C-terminal 12 aa], the protein stability index was found to be 0.694 ± 0.032 under setting [1] and 0.7 ± 0.018 (genetic background: wild type).

Consider HLYFQNPPPAMC [HOT13 C-terminal 12 aa], for which the protein stability index by setting is: under setting [1], 0.72 ± 0.021; (genetic background: wild type) 0.728 ± 0.031.

HNLHSYEKRLHN [IMD2 C-terminal 12 aa]: the protein stability index reads like this: under setting [1], 0.7234 ± 0.0046; (genetic background: wild type) 0.742 ± 0.066.

In the case of HQFCEQKYVETI [RRT16 C-terminal 12 aa], the protein stability index under setting [1] stood at 0.7109 ± 0.0024 and the protein stability index (genetic background: wild type) amounted to 0.664 ± 0.0071.

On to HSRASVQSHPQH [DAL80 C-terminal 12 aa], for which the protein stability index under setting [1] was determined as 0.7271 ± 0.0023 and the protein stability index (genetic background: wild type) is 0.699 ± 0.03.

HSSYDRPMIIKN [UBP15 C-terminal 12 aa]: the protein stability index is, setting by setting: under setting [1], 0.685 ± 0.056; (genetic background: wild type) 0.662 ± 0.025.

As to IADHLVGRKRVD [PFK2 C-terminal 12 aa], the protein stability index stood at 0.701 ± 0.014 under setting [1] and 0.712 ± 0.059 (genetic background: wild type).

IAEENSSTESLF [CIS1 C-terminal 12 aa] returned a protein stability index under setting [1] of 0.709 ± 0.0088 and a protein stability index (genetic background: wild type) of 0.726 ± 0.065.

On to ICCQVAKSLLKI [YGL074C C-terminal 12 aa], for which the protein stability index under setting [1] was found to be 0.656 ± 0.016 and the protein stability index (genetic background: wild type) stood at 0.688 ± 0.027.

As to IDDKSDQEESLQ [MAF1 C-terminal 12 aa], the protein stability index is, setting by setting: under setting [1], 0.706 ± 0.0079; (genetic background: wild type) 0.664 ± 0.067.

For the sequence IDLIAFLRNGPL [GPR1 C-terminal 12 aa], the protein stability index by setting is: under setting [1], 0.737 ± 0.039; (genetic background: wild type) 0.749 ± 0.088.

Regarding IDLLAENTKTPI [COA1 C-terminal 12 aa], the protein stability index was 0.6964 ± 0.0031 under setting [1] and 0.697 ± 0.018 (genetic background: wild type).

For the sequence IEQEAKQRERNQ [COA6 C-terminal 12 aa], the protein stability index is 0.6993 ± 0.0011 under setting [1] and 0.701 ± 0.02 (genetic background: wild type).

As for IFCFDNYRSCYC [YKL031W C-terminal 12 aa], the protein stability index is 0.7071 ± 0.0034 under setting [1] and 0.678 ± 0.038 (genetic background: wild type).

In the case of IFKSLIAKKVQS [BPL1 C-terminal 12 aa], the protein stability index was found to be 0.69 ± 0.001 under setting [1] and 0.433 ± 0.033 (genetic background: wild type).

Take IFLMKKAYDLQI [EFM1 C-terminal 12 aa]: the protein stability index under setting [1] came out at 0.675 ± 0.011 and the protein stability index (genetic background: wild type) is 0.657 ± 0.02.

“IGIGTHDLHFGS [YHR052W-A C-terminal 12 aa]”: the protein stability index is, setting by setting: under setting [1], 0.728 ± 0.033; (genetic background: wild type) 0.7123 ± 0.0016.
